From article PMC11162790

Tested on: ArsR-P (phosphorylated His6-ArsR) (Helicobacter pylori SMI109)
Assay: EMSA
Details: Buffer F: 50 mM Tris-acetate pH 7.5, 100 mM K-glutamate, 20 mM Mg-acetate, 5% glycerol, 0.1 ug poly dI-dC, 25 C, 30 min; EMSA 5-7 nM DNA, footprint 25 nM DNA

For PsabA SMI109 (T13, wt) 407 bp, the K half was 1350 nM.
